This data set can be described thus: protein stability index of a GFP-peptide fusion (GPS, HEK-293T) (PSI 1-6); higher = more stable.
Where [1] appears, read: treatment: DMSO, c terminus: a fixed tail appended.
The mark [2] stands for this setting: treatment: MLN4924 1 uM, 8 h, c terminus: a fixed tail appended.

± gives the standard deviation.
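Note: 24-mer peptide tiles fused after GFP, lentivirally expressed, FACS-sorted into six equal bins by GFP/DsRed ratio, decoded by Illumina sequencing, PSI is the read-weighted mean bin number.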

As to QLRNVRERLAKNLVEKGVLTTEKQ [GOLPH3], the protein stability index by setting is: under setting [1], 3.68 ± 0.34; under setting [2], 3.84 ± 0.17.

For the sequence SSGEDDDFKSCPQGPQGREGLAFL [PWWP2B], the protein stability index under setting [1] was determined as 4.75 ± 0.23 and the protein stability index under setting [2] was 4.85 ± 0.18.

As to MEAAREGHEEMVALLLGQGANINA [ANKRD17], the protein stability index under setting [1] turned out to be 4.16 ± 0.17 and the protein stability index under setting [2] was determined as 4.15 ± 0.24.

As for EGSDYINASFIDGYRQQKAYIATQ [PTPRD], the protein stability index came to 3.18 ± 0.25 under setting [1] and 3.34 ± 0.23 under setting [2].

In the case of SSTTGLFYSAEIICAIEYLHSKEI [PRKX], the protein stability index reads like this: under setting [1], 3.13 ± 0.61; under setting [2], 3.33 ± 1.

In the case of GSLCSPWAAPRVGPLPPAPAMVRI [YPEL3], the protein stability index was found to be 2.95 ± 0.15 under setting [1] and 3.07 ± 0.45 under setting [2].

As to GQRDRKAEHWKHKKEESGRERKKN [PBXIP1], the protein stability index is, setting by setting: under setting [1], 5.08 ± 0.12; under setting [2], 5.4 ± 0.15.

In the case of GTTMASGGRFRCPSCRHEVVLDRH [TRIM55], the protein stability index under setting [1] was found to be 2.08 ± 0.41 and the protein stability index under setting [2] was 2.12 ± 0.22.

Turning to VETLLRHGAHINLQSLKFQGGHGP [RIPK4], the protein stability index amounted to 2.63 ± 0.39 under setting [1] and 3.11 ± 0.24 under setting [2].

As for FRHDRLRFRDFVDALEDSLEEVAV [PBXIP1], the protein stability index is, setting by setting: under setting [1], 3.04 ± 0.47; under setting [2], 3.48 ± 0.3.

On to SNSLAIAILMKAYQRFRQKSKASF [PTGFR], for which the protein stability index runs as follows: under setting [1], 2.1 ± 0.25; under setting [2], 2.23 ± 0.19.

SSEDYRQLELVILQSEPHRAGVQW [KCNK9]: the protein stability index is, setting by setting: under setting [1], 2.41 ± 0.19; under setting [2], 2.38 ± 0.29.

YQHFLQDCVDGLFKEVKEKFKGWV [DLC1] returned a protein stability index under setting [1] of 2.26 ± 0.49 and a protein stability index under setting [2] of 2.02 ± 0.11.

EQKNHTFPRLNRNKYMVTDGAAYI [PLD5]: the protein stability index was 2.85 ± 0.078 under setting [1] and 3.19 ± 0.24 under setting [2].

Turning to DSSEEESHRVVLRPRGKERHKSGV [LYSMD4], the protein stability index is, setting by setting: under setting [1], 5.21 ± 0.28; under setting [2], 5.14 ± 0.11.

For DDKHYGGFTNKQLQSGQEYVFFVL [PTPRD], the protein stability index under setting [1] was 2.64 ± 0.53 and the protein stability index under setting [2] amounted to 2.55 ± 0.43.

Turning to LAFLDKIKSVKESLQESVEDSLAT [IQUB], the protein stability index was 4.03 ± 0.45 under setting [1] and 3.77 ± 0.69 under setting [2].

Regarding PSDDLTLLESSSSYKNLTLKFHKL [MCOLN1], the protein stability index is, setting by setting: under setting [1], 3.24 ± 0.21; under setting [2], 3.31 ± 0.24.

For HAYFRGHSPSCLARVTGELTMTFP [FCHO1], the protein stability index runs as follows: under setting [1], 2.21 ± 0.52; under setting [2], 2.23 ± 0.13.

LVLNSQQSDTLEQREEHELVHVME [RAD54B] had a protein stability index under setting [1] of 4.59 ± 0.24 and a protein stability index under setting [2] of 4.36 ± 0.21.

Take RFALRFIRPDPRSRVTDPVGDIVS [FAF2]: the protein stability index worked out at 2.49 ± 0.35 under setting [1] and 2.62 ± 0.31 under setting [2].

EASQLRRLNIKKDDEFFHFVLLCF [TMEM40]: the protein stability index worked out at 2.15 ± 0.25 under setting [1] and 2.22 ± 0.26 under setting [2].

For the sequence LVTYTNRYIIFKRNTLNQPCSGSV [GMCL1], the protein stability index stood at 2.29 ± 0.24 under setting [1] and 2.07 ± 0.2 under setting [2].

In the case of FPDVPLGIFLFCVCVIAIGVVQAL [TMEM175], the protein stability index by setting is: under setting [1], 2.63 ± 0.62; under setting [2], 2.28 ± 1.2.

Sequence GHAQDLMDGLPPGDSNQLAWFDTD [CTNNB1] yielded a protein stability index under setting [1] of 4.93 ± 0.31 and a protein stability index under setting [2] of 4.7 ± 0.27.

TLSEAYIQIWKRRDNDETNQQGA [USP39]: the protein stability index was 2.52 ± 0.65 (treatment: DMSO, c terminus: native) and 3.24 ± 0.42 (treatment: MLN4924 1 uM, 8 h, c terminus: native).

Turning to NTAKSTSRVTAFLDDLSQKLKPLG [NLN], the protein stability index is, setting by setting: under setting [1], 3.42 ± 0.15; under setting [2], 3.35 ± 0.044.

Consider ENPVGTFHCSMSPGNLEKNRYGDV [PTPN9], for which the protein stability index came to 3.44 ± 0.35 under setting [1] and 3.4 ± 0.38 under setting [2].

With DALISVSYTIITPLFNPMIYSLRN [OR10K2], the protein stability index under setting [1] turned out to be 4.18 ± 0.26 and the protein stability index under setting [2] turned out to be 3.35 ± 0.75.

For LALGPILRLYKHNSQALLLHSSIL [MFSD9], the protein stability index reads like this: under setting [1], 3.12 ± 0.78; under setting [2], 2.59 ± 0.37.

Sequence ALSRKKSQGLAREQHAGTSEGLHL [FBF1] had a protein stability index under setting [1] of 4.26 ± 0.28 and a protein stability index under setting [2] of 3.78 ± 0.42.

On to VSQQTGSPGKQPGENSDCHRDSSQ [ZNF8], for which the protein stability index is, setting by setting: under setting [1], 5.31 ± 0.47; under setting [2], 5.47 ± 0.21.

For GFVMVPFEYRGEQHKTCMLNATSK [EDNRA], the protein stability index reads like this: under setting [1], 2.24 ± 0.43; under setting [2], 2.75 ± 0.37.

With LLLLFGVAGGLVACRVTELQQQPL [LRRC59], the protein stability index was 2.77 ± 0.2 under setting [1] and 3.46 ± 0.55 under setting [2].

Turning to SSDMMDSSSFSNLDLSEEDSDDPS [VDR], the protein stability index was found to be 5.66 ± 0.25 under setting [1] and 5.63 ± 0.26 under setting [2].

Take EVYYAKKKRRAQQAPPQDSSNKKE [DYRK1B]: the protein stability index reads like this: under setting [1], 4.45 ± 0.28; under setting [2], 4.77 ± 0.24.

Turning to APGSSVEYQCQNLYQLEGNNQITC [CFHR2], the protein stability index is, setting by setting: under setting [1], 3.88 ± 0.12; under setting [2], 3.88 ± 0.17.

As to APKKELINIKGISEAKADKILAEA [RAD51], the protein stability index is, setting by setting: under setting [1], 4.05 ± 0.25; under setting [2], 4.49 ± 0.46.

Take DKRNYPSLELDKMAHGYGEESEEE [CHGB]: the protein stability index reads like this: under setting [1], 5.63 ± 0.37; under setting [2], 5.66 ± 0.19.

Regarding QEKLQVLMAEGLLPAVKVFLDWLR [SMG5], the protein stability index reads like this: under setting [1], 2.5 ± 0.7; under setting [2], 2.57 ± 0.54.

With RLRALGERHTMDLTVEGFQSWMWR [TMEM120A], the protein stability index is, setting by setting: under setting [1], 2.38 ± 0.27; under setting [2], 2.58 ± 0.49.

As for EPLAEGAAAEFSSLLRRIKGKLFT [SLC35F2], the protein stability index reads like this: under setting [1], 2.55 ± 0.33; under setting [2], 2.65 ± 0.096.

For GLDSPPLYPSAPILGGSGPVRKLY [ESRRG], the protein stability index came out at 3.37 ± 0.13 under setting [1] and 3.49 ± 0.24 under setting [2].

For VVGALPAEHQFSFMEKRNQWLVSQ [TRAF3IP2], the protein stability index is, setting by setting: under setting [1], 2.36 ± 0.24; under setting [2], 2.65 ± 0.26.

Take GPTSSNPRKRHREDSDVEMVEDDS [MLH1]: the protein stability index is, setting by setting: under setting [1], 5.32 ± 0.13; under setting [2], 5.22 ± 0.6.

Regarding IDIVAIIPYFITLGTELAERQGNG [KCNA3], the protein stability index by setting is: under setting [1], 2.97 ± 0.38; under setting [2], 3.29 ± 0.59.

Consider ELIKWRAAIVVNGHGMTPLKVAAE [FEM1B], for which the protein stability index runs as follows: under setting [1], 2.64 ± 0.55; under setting [2], 2.15 ± 0.33.

Take WDPNTGFDLNNLDPELKNLFDMCG [WASL]: the protein stability index was found to be 3.05 ± 0.36 under setting [1] and 3.1 ± 0.37 under setting [2].

In the case of LEVINLLRKHRELCDVVLVVGAKK [KLHL20], the protein stability index turned out to be 2.37 ± 0.48 under setting [1] and 2.41 ± 0.34 under setting [2].

For the sequence SHSKAPSGSQMSHNAVTSHQRPGW [NCF4], the protein stability index by setting is: under setting [1], 3.88 ± 0.23; under setting [2], 4.05 ± 0.22.

RTPEILKKALSGLSSRWKNWWIRG [CDS1] yielded a protein stability index under setting [1] of 2.49 ± 0.86 and a protein stability index under setting [2] of 2.26 ± 0.73.

Take YQPLVTMDDAMERTVQSFRHLRRV [NSDHL]: the protein stability index worked out at 3.14 ± 0.24 under setting [1] and 3.22 ± 0.31 under setting [2].

On to MKCLKVGMLKEGVRLDRVRGGRQK [ESRRG], for which the protein stability index runs as follows: under setting [1], 3.5 ± 0.092; under setting [2], 3.73 ± 0.21.

GYRTSAVASGLQFDVETRHVFIGD [WDFY2]: the protein stability index is, setting by setting: under setting [1], 2.86 ± 0.31; under setting [2], 3.15 ± 0.36.

For the sequence VPISVTGIAQVKIQGQNKEMLAAA [FLOT1], the protein stability index runs as follows: under setting [1], 3.52 ± 0.27; under setting [2], 3.61 ± 0.13.

As for MARLQEEHGDQLLSIRCQHQEQVE [MTUS2], the protein stability index is, setting by setting: under setting [1], 4.85 ± 0.38; under setting [2], 4.96 ± 0.11.

TFEVPEENTAETITRVLYEVFIEW [ZBED1]: the protein stability index was 2.07 ± 0.4 under setting [1] and 2 ± 0.47 under setting [2].

As to LQQQPLCTSVNTIYDNAVQGLRRH [LRRC59], the protein stability index by setting is: under setting [1], 3.66 ± 0.091; under setting [2], 3.83 ± 0.13.

As for RSPSGSLRSARGSRGGTRGWLPSH [RBMY1A1], the protein stability index is, setting by setting: under setting [1], 3.95 ± 0.18; under setting [2], 4.07 ± 0.17.

As to MQHSFPEPGRLYLDLILAILALEL [TMEM192], the protein stability index is, setting by setting: under setting [1], 2.62 ± 0.41; under setting [2], 2.45 ± 0.36.

Consider NKATNTDHLTTVLYLQLAICSSLQ [C8orf76], for which the protein stability index is 3.4 ± 0.44 under setting [1] and 3.21 ± 0.64 under setting [2].

On to RVLRGRPGAGSRRRGRMALCGQAA [FBXO33], for which the protein stability index reads like this: under setting [1], 4 ± 0.18; under setting [2], 4.74 ± 0.22.

For ADCVRGPDGVCLSGGRGPQGDKAI [PBXIP1], the protein stability index is, setting by setting: under setting [1], 4.52 ± 0.57; under setting [2], 4.78 ± 0.22.

Take DFSMAEALNQEFLATRSNEKQELQ [PRPH]: the protein stability index under setting [1] was determined as 5.05 ± 0.19 and the protein stability index under setting [2] was 4.95 ± 0.27.

For PLVTAIEIVSIWILSFILAIPEAI [EDNRA], the protein stability index by setting is: under setting [1], 3.48 ± 0.8; under setting [2], 3.68 ± 0.15.

For LIANIVHDGKPSEGSYRIHVLHHG [USP39], the protein stability index reads like this: under setting [1], 2.21 ± 0.2; under setting [2], 2.19 ± 0.25.

With PASRRRVVEEVRRRATSGGKWPQV [LPCAT4], the protein stability index was 3.99 ± 0.17 under setting [1] and 3.82 ± 0.23 under setting [2].

In the case of SEDLDGHSDPEESFARDLPDFPSI [RETREG3], the protein stability index stood at 5.33 ± 0.2 under setting [1] and 5.13 ± 0.45 under setting [2].

For NLLQDSSTSDSDLTCDSSTSSSDD [C18orf25], the protein stability index worked out at 5.53 ± 0.3 under setting [1] and 5.61 ± 0.16 under setting [2].

For the sequence TLQDLVFDECGITDDQLLALLPSL [PRAME], the protein stability index reads like this: under setting [1], 2.84 ± 0.26; under setting [2], 3.03 ± 0.34.

Consider SLKQALKGLSVEFALLADKAAQQG [SNX8], for which the protein stability index is 2.32 ± 0.18 under setting [1] and 2.52 ± 0.31 under setting [2].

As to PPPPPPAQTFLFQGQPVVNRPLSL [TRADD], the protein stability index runs as follows: under setting [1], 3.71 ± 0.4; under setting [2], 3.99 ± 0.29.

The record behind these values is the supplement of paper PMC10567573.
